The results in this text go back to patent publication US20250248992A1, “INNATE IMMUNE-ACTIVATING DRUG AND USE THEREOF” (LUODA BIOPHARMA (SUZHOU) CO., LTD., priority 2021, published 2025).

This assay concerns OVA-specific antibodies in serum. Description: Immune adjuvant activity with ovalbumin (OVA), serum antibody ELISA. Type of assay: in vivo, mice. Conditions: OVA alone, intramuscular, Day 0, 7, 14, serum Day 21.

B1: ovalbumin (protein, UniProt P01012 2-386, looked up)
Ovalbumin: GSIGAASMEFCFDVFKELKVHHANENIFYCPIAIMSALAMVYLGAKDSTRTQINKVVRFDKLPGFGDSIEAQCGTSVNVHSSLRDILNQITKPNDVYSFSLASRLYAEERYPILPEYLQCVKELYRGGLEPINFQTAADQARELINSWVESQTNGIIRNVLQPSSVDSQTAMVLVNAIVFKGLWEKAFKDEDTQAMPFRVTEQESKPVQMMYQIGLFRVASMASEKMKILELPFASGTMSMLVLLPDEVSGLEQLESIINFEKLTEWTSSNVMEERKIKVYLPRMKMEEKYNLTSVLMAMGITDVFSSSANLSGISSAESLKISQAVHAAHAEINEAGREVVGSAEAGVDAASVSEEFRADHPFLFCIKHIATNAVLFFGRCVSP
notes: Antigen ovalbumin (OVA) used for immunization of mice
Consider B1, for which the “protective humoral immune response after immunization” value was “did not generate a protective humoral immune response”.
